T1: human IL-2 receptor βγc heterodimer (hIL-2Rβγc), soluble (human, UniProt P14784 27-240; P31785 23-254, biotin on the C-terminal biotin acceptor peptide)
T1 construct: also called HsIL-2Rβγc; hIL-2Rβνc
T1 sequence 1: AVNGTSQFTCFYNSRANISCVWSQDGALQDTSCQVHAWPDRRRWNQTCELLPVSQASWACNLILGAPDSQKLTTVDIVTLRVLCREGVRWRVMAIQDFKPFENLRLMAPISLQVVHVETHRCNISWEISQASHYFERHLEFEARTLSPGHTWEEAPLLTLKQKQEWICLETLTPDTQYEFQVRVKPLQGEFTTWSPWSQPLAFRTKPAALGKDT
T1 sequence 2: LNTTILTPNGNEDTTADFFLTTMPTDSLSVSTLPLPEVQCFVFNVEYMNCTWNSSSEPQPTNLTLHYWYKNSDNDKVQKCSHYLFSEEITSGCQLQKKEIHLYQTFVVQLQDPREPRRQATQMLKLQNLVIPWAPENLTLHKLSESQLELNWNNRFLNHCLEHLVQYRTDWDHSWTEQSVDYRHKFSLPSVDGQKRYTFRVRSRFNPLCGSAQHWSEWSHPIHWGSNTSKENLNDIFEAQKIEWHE

T2: mouse IL-2 receptor βγc heterodimer (mIL-2Rβγc), soluble (mouse, UniProt P16297 27-240; P34902 23-263, biotin on the C-terminal biotin acceptor peptide)
T2 construct: extracellular domain; also called MmIL-2Rβγc; mIL-2Rβνc
T2 sequence 1: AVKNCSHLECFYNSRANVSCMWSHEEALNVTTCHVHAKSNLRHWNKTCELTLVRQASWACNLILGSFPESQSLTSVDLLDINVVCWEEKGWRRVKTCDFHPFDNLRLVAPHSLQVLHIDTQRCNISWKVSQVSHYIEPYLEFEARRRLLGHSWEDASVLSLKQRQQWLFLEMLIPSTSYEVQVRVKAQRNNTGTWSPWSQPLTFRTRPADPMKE
T2 sequence 2: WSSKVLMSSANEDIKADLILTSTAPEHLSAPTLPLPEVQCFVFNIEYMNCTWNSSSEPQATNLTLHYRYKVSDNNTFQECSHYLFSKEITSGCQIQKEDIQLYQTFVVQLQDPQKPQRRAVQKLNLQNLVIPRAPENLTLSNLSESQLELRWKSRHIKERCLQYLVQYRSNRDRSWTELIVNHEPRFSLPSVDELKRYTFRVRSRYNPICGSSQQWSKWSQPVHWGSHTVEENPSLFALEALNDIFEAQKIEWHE

B1: G1_neo2_40_1F (designed binder)
chain: STKKTQLLAEHALLDALMMLNLLPEPNEKLNRIITTMQSWIFTGKIDGDGAQELAKEVEELEQEHEKRGIDVEDYASNLKVILLELA
notes: also called G1_ne02_40_1F
B2: G2_neo2_40_1F_dsn36 (designed binder)
chain: PKKKIQLLAEHALLDALMILNIVKTNSQNAEEKLEDYASNVEVILEEIARLMESGDQKDEAEKAKRMKEWMKRIKTTASEDEQEEMANRIITLLQSWIFS
notes: E. coli, N-terminal 6xHis tag and thrombin site
B3: mouse interleukin-2 (mIL-2) (ligand, UniProt P04351 21-169, looked up)
chain: APTSSSTSSSTAEAQQQQQQQQQQQQHLEQLLMDLQELLSRMENYRNLKLPRMLTFKFYLPKQATELKDLQCLEDELGPLRHVLDLTQSKSFQLEDAENFISNIRVTVVKLKGSDNTFECQFDDESATVVDFLRRWIAFCQSIISTSPQ
notes: range 1-149; Baculovirus expression for SPR; also called MmIL-2; mouse IL-2

The binders below were run against T1, human IL-2 receptor βγc heterodimer … (assay: SPR, equilibrium titration; IL-2Rγ on streptavidin chip, saturating IL-2Rβ in solution).

Point of comparison: B2, Kd 114 nM. Against it:
- B1 — 50-fold lower, 2.3 nM
- B3 — 70-fold higher, 8030 nM

The binders below were run against T2, mouse IL-2 receptor βγc heterodimer … in the same assay as above.

Point of comparison: B1, Kd 7.9 nM. Against it:
- B2 — 72-fold higher, 568 nM
- B3 — 16-fold higher, 126 nM

Source: patent US20200339648A1 (University of Washington, published 2020)
